The target of assay [1] is human CD18 (human) (UniProt P05107). In words: cell-based or functional assay.
The target in assay [2] is rhesus CD18 (rhesus) (UniProt H9Z8N5). As to the kind of experiment: cell-based or functional assay.
For assay [3] the target is unchanged. In words: saturation binding, rhesus leukocytes, donor 1, Kd(app).
Assay [4] shares this target. As to the kind of experiment: saturation binding, rhesus leukocytes, donor 2, Kd(app).

The text below walks through data of patent EP1516629B1.

pKd: −log10 of the molar value.

human CD18 (human), sequence (P05107 23-769): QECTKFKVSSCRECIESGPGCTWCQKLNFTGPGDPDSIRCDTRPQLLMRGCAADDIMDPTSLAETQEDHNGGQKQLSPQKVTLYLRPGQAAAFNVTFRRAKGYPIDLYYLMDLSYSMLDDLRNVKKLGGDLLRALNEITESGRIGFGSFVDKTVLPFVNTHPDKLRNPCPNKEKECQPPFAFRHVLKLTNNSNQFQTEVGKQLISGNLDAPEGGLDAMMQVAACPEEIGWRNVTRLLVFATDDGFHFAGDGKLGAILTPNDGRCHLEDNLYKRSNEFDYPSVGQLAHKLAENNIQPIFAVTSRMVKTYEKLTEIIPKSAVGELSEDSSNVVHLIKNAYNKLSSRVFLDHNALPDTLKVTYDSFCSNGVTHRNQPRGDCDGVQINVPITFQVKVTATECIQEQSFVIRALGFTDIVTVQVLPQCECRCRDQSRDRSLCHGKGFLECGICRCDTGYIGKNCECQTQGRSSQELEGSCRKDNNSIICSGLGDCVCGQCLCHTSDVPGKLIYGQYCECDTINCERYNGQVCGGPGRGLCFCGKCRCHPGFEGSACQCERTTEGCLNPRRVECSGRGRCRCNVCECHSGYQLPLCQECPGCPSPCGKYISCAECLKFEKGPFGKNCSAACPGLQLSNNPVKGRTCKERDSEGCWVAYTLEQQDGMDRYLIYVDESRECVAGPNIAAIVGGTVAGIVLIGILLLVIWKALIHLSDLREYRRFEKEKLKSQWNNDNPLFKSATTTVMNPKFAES

The pKd is the Kd on a negative log10 scale, so that one unit is a factor of ten. Low readings indicate a large Kd, high ones a small Kd. For murine anti-human CD18 antibody MHM23, the IC50, blocking of cell adhesion, Rh/HuCD11a:HuK in assay [1] worked out at 1.4 nM. This substance returned an IC50, blocking of cell adhesion, RhLy:HuICAM in assay [2] of 1.2 nM. The same substance came in with an IC50, blocking of cell adhesion, RhLy:HuK in assay [2] of 1.6 nM. Also, the pKd is 8.41 in assay [3] and 8.35 in assay [4].
